Kd data for one molecule are collected here from paper PMC12373997, “Conserved function of the HAUS6 calponin homology domain in anchoring augmin for microtubule branching” (Nature Communications, 2025).

In the assay the target is T1, Taxol-stabilized microtubules polymerised from purified porcine brain tubulin (porcine, UniProt P02550 1-451; P02554 1-439).
T1 construct: P81947 was used only for the MD model; Q6B856 was used only for the MD model; Polymer of α/β-tubulin heterodimers (13- and 14-protofilament MTs in cryo-EM); brain tubulin is probably a mix of isotypes; Concentrations are α/β-tubulin heterodimer molarity; also called MTs; MT; source: tubulin purified from porcine brain; polymerised in vitro with GTP and paclitaxel
Kind of assay: co-sedimentation; tubulin co-sedimentation: taxol-stabilized MTs (varied, α/β-tubulin heterodimer molarity) with 1 µM purified N-clamp, 0.25 mg/ml BSA, BRB80-MT buffer (80 mM PIPES, 1 mM MgCl2, 1 mM EGTA, 12.5% glycerol, pH 6.8), 20 min at room temperature, 200,000 g 10 min 27 °C; SDS-PAGE densitometry of pellet; apparent Kd from a quadratic fit. As to conditions: both partners purified.

B1: D. melanogaster augmin N-clamp with Dgt4 lacking its N-terminal extension (complex)
chain 1: MSDAVDKMLAGMAANRQTMNRQLAKIDEIMERSNNTLLHIESNSKAFSQNVALSETQKMYNLRPEAEMTLSKILENFKLLMSSSDQREETYSALEGCLAYRHRVEHLGSSVRKLVALYDTVGQMKNSQEEQYASEDSP
chain 2: MDRTIIAPWKAEEKEQSEKLHRKLQGLALVHPLPDELRKLIAWDMFLKPNQVAFVHVMHYLFRLLDPAEFKRRFFWPITDKKSEANFRSSTVEYLKHLNEKHQLHWANIKSYLVVMPGGMRFINFLLEFVGFVIQELIKQREKSLGLEAGTPNVSAKVMARQNAVMKEYASSYVVNLEENTALLRDKTQKIRRLMADLSADMGVPEEQLADDGFLDEFEATAALGVERVITQPTERKFDLEASLCGLKEAIDLFQVKQAENNQSKEAVEKALRGMRVLFD
chain 3: METNVDFSSISSKLYRKYAQHVRNLKDVCVSKTVMKPGAFFDSLQQMMEEEAAATTPPRDLSSVADYAELFKTLEEYPANLQKMPKKRELQRTNSTLLRGADESVAMGINTSNVSLSLTRLEEQRSAVDVYNDFKGFQRKLAKIYDEAAALDTTESIYKQKLTQLHGFAQQLEKLMPTGGESPPDAFTSEQ
chain 4: MDDIQYLLHLEAMRRFQEDSRNVKRQVEEQVRIWLDAKCEYQRDFGRLARLLKCGALQAAVDAHRVSDVNQVDQAAKDIASLRSKLGS
modifications: Dgt4-deltaNT start (MDDIQY) read from the printed N-del primer, Dgt4 end from 9RPD entity 1; Dgt6 from 9RPD entity 2; Msd5 end is estimated from the length of the 9RPD fusion entity; Msd1 is assumed …
For the molecule B1, the Kd turned out to be 2900 nM.
